How the values were obtained:
[1] = target: T1, HLA-A*02:01 presenting LPIN2 823-832 peptide (…) (human); test: flow cytometry, peptide-pulsed T2 cells
T1 construct: On peptide-pulsed T2 cells

[2] = target: T2, HLA-A*02:01 presenting SCL25A19 111-120 peptide (…) (human); test: flow cytometry, peptide-pulsed T2 cells
T2 construct: On peptide-pulsed T2 cells

[3] = target: T3, HLA-A*02:01 presenting CCDC36 417-426 peptide (…) (human); test: flow cytometry, peptide-pulsed T2 cells
T3 construct: On peptide-pulsed T2 cells

[4] = target: T4, HLA-A*02:01 presenting PAPPA2 307-316 peptide (…) (human); test: flow cytometry, peptide-pulsed T2 cells
T4 construct: On peptide-pulsed T2 cells

[5] = target: T5, HLA-A*02:01 presenting MAGE-A10 254-263 peptide (…) (human); test: flow cytometry, peptide-pulsed T2 cells
T5 construct: On peptide-pulsed T2 cells

[6] = target: T6, HLA-A*02:01 presenting CELSR3 1594-1603 peptide (…) (human); test: flow cytometry, peptide-pulsed T2 cells
T6 construct: On peptide-pulsed T2 cells

[7] = target: T7, HLA-A*02:01 presenting FAT4 4053-4062 peptide (…) (human); test: flow cytometry, peptide-pulsed T2 cells
T7 construct: On peptide-pulsed T2 cells

[8] = target: T8, HLA-A*02:01 presenting THBS3 116-125 peptide (…) (human); test: flow cytometry, peptide-pulsed T2 cells
T8 construct: On peptide-pulsed T2 cells

[9] = target: T1, HLA-A*02:01 presenting LPIN2 823-832 …; test: flow cytometry, peptide-pulsed T2 cells, 100 nM antibody
Procedure: (§1) Samples were run on an IntelliCyt iQue flow cytometer (Intellicyt) and results were analyzed using Forecyte analysis software (Intellicyt) to calculate the mean fluorescent intensity (MFI) after gating for live cells. MFI values were plotted in Graphpad Prism using a four-parameter logistic equation over a 12-point response curve to calculate EC50 values. The secondary antibody alone (i.e., no primary antibody) for each dose-response curve was also included in the analysis as a continuation of the three-fold serial dilution and was represented as the lowest dose. The signal to noise (S/N) was determined by taking the ratio of the highest MFI on the dose response curve to the MFI in the secondary-alone wells.

[10] = target: T2, HLA-A*02:01 presenting SCL25A19 111-120 …; test: as above
Procedure: as §1

[11] = target: T9, HLA-A*02:01 presenting MAGE-A4 230-239 peptide (…) (human); test: as above
T9 construct: On peptide-pulsed T2 cells
Procedure: as §1

[12] = target: T3, HLA-A*02:01 presenting CCDC36 417-426 …; test: as above
Procedure: as §1

[13] = target: T4, HLA-A*02:01 presenting PAPPA2 307-316 …; test: as above
Procedure: as §1

[14] = target: T5, HLA-A*02:01 presenting MAGE-A10 254-263 …; test: as above
Procedure: as §1

[15] = target: T6, HLA-A*02:01 presenting CELSR3 1594-1603 …; test: as above
Procedure: as §1

[16] = target: T7, HLA-A*02:01 presenting FAT4 4053-4062 …; test: as above
Procedure: as §1

[17] = target: T10, HLA-A*02:01 presenting MAGE-A8 232-241 peptide (…) (human); test: as above
T10 construct: On peptide-pulsed T2 cells
Procedure: as §1

[18] = target: T8, HLA-A*02:01 presenting THBS3 116-125 …; test: as above
Procedure: as §1

[19] = target: T9, HLA-A*02:01 presenting MAGE-A4 230-239 …; test: flow cytometry, peptide-pulsed T2 cells
Procedure: as §1

binding result [1]: no binding (tested: 100 nM)
binding result [2]: no binding (tested: 100 nM)
binding result [3]: no binding (tested: 100 nM)
binding result [4]: no binding (tested: 100 nM)
binding result [5]: no binding (tested: 100 nM)
binding result [6]: no binding (tested: 100 nM)
binding result [7]: no binding (tested: 100 nM)
binding result [8]: no binding (tested: 100 nM)
Antibody Binding Ratio (pulsed cell MFI/Unpulsed cell MFI) [9]: 0.9
Antibody Binding Ratio (pulsed cell MFI/Unpulsed cell MFI) [10]: 0.8
Antibody Binding Ratio (pulsed cell MFI/Unpulsed cell MFI) [11]: 513
Antibody Binding Ratio (pulsed cell MFI/Unpulsed cell MFI) [12]: 1
Antibody Binding Ratio (pulsed cell MFI/Unpulsed cell MFI) [13]: 0.9
Antibody Binding Ratio (pulsed cell MFI/Unpulsed cell MFI) [14]: 0.9
Antibody Binding Ratio (pulsed cell MFI/Unpulsed cell MFI) [15]: 0.8
Antibody Binding Ratio (pulsed cell MFI/Unpulsed cell MFI) [16]: 1
Antibody Binding Ratio (pulsed cell MFI/Unpulsed cell MFI) [17]: 870
Antibody Binding Ratio (pulsed cell MFI/Unpulsed cell MFI) [18]: 1
EC50 [19]: 4.7 nM
B1: mAbM34852N (antibody, V domains shown)
VH: EVQLLESGGGLVQPGGSLRLTCAASGFTFRSYAMSWVRQAPGKGLEWVSTISGNSDSTYYADSVKGRFTISRENSKNTLYLQMNSLRAEDTAVYYCAKDLHITMVRGAIPADVFDIWGQGTMVTVSS
VL: not shown
notes: Mouse constant region (detected with anti-mouse Fc secondary)

Source: patent US20240226163A1 (Regeneron, published 2024)
